Key:
[1] = target: Rpa heterotrimer (Rpa70/Rpa32/Rpa14) (Mus musculus) (UniProt Q8VEE4+Q62193+Q9CQ71); test: bead pull-down; conditions: Dna2 D278A added after Rpa loading; EMSA: 20 mM Tris-HCl pH 8.0, 80 mM NaCl, 0.3 mM TCEP, 0.2 mg/mL BSA, 2% glycerol, on ice 30 min, 0.075 or 0.3 nM 32P-DNA; 4% native PAGE, 1x TB, 4 C
[2] = target: mouse Rpa heterotrimer (Rpa70, Rpa32, Rpa14) (mouse) (UniProt Q8VEE4)
mouse Rpa heterotrimer (Rpa70, Rpa32, Rpa14) (mouse), sequence (Q8VEE4 whole entry, chain 1 of 3): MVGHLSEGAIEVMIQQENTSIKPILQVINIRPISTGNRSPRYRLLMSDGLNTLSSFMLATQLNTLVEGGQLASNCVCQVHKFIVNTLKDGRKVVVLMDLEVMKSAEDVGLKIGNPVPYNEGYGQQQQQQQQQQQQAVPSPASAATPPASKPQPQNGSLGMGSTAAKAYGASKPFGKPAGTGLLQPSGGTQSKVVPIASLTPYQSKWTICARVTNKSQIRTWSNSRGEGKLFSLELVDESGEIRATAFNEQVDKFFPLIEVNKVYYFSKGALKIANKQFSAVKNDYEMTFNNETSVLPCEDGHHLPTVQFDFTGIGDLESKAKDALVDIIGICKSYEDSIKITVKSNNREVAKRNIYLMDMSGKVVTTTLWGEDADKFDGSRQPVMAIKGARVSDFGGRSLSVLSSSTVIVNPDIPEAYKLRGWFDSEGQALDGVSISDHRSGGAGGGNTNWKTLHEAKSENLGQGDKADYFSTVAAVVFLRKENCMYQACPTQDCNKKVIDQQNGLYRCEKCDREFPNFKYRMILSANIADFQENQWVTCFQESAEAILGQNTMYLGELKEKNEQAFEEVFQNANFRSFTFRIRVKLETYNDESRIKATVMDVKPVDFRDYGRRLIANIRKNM
mouse Rpa heterotrimer (Rpa70, Rpa32, Rpa14) (mouse), sequence (Q62193 whole entry, chain 2 of 3, further chain): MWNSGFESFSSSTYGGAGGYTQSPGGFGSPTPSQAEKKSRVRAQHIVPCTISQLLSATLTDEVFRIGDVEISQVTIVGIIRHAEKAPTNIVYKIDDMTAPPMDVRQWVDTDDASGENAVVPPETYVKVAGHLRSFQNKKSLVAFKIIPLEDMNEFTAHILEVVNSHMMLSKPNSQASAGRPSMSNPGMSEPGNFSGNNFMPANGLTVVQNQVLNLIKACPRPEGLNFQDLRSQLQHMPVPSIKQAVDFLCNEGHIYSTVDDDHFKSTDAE
mouse Rpa heterotrimer (Rpa70, Rpa32, Rpa14) (mouse), sequence (Q9CQ71 whole entry, chain 3 of 3, further chain): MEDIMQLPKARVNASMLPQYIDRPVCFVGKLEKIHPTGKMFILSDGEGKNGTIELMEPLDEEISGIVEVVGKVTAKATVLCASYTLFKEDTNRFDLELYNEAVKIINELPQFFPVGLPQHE

Rpa heterotrimer (Rpa70/Rpa32/Rpa14) (Mus musculus), sequence (Q8VEE4 whole entry, chain 1 of 3): as the sequence (Q8VEE4 whole entry, chain 1 of 3) above
Rpa heterotrimer (Rpa70/Rpa32/Rpa14) (Mus musculus), sequence (Q62193 whole entry, chain 2 of 3): as the sequence (Q62193 whole entry, chain 2 of 3, further chain) above
Rpa heterotrimer (Rpa70/Rpa32/Rpa14) (Mus musculus), sequence (Q9CQ71 whole entry, chain 3 of 3): as the sequence (Q9CQ71 whole entry, chain 3 of 3, further chain) above
α1-deleted mouse Dna2, sequence (Q6ZQJ5 1-1056, stated change not applied): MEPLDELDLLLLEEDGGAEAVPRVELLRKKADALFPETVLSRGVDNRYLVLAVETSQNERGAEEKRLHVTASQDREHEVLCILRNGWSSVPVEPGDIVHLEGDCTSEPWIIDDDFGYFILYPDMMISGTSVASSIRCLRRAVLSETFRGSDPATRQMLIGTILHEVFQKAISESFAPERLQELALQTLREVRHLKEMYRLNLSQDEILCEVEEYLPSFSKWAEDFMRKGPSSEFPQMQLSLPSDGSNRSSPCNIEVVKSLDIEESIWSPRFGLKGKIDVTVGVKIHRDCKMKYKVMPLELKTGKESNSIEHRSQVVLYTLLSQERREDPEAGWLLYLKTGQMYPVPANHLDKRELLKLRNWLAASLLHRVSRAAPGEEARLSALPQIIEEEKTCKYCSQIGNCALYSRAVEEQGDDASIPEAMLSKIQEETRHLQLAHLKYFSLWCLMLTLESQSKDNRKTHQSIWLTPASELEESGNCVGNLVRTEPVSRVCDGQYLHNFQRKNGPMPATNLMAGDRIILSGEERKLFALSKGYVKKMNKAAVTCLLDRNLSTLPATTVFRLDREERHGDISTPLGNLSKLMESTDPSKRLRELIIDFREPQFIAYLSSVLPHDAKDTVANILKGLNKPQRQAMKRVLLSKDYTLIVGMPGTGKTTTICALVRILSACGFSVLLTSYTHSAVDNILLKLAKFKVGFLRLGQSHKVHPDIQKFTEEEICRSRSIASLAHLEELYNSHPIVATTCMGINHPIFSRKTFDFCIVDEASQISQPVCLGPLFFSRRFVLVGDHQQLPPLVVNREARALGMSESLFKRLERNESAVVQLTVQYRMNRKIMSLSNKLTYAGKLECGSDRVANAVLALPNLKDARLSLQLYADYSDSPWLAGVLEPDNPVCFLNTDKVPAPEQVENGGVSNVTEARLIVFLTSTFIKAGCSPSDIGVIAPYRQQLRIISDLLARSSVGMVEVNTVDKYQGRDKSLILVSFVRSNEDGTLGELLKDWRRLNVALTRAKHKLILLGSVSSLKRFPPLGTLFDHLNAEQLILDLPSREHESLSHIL

Row | nuclease activity: cleavage of the Rpa-coated 5’ stem-loop overhang substrate 5’SL24 (15 nM, 15 nM Rpa), fold reduction compared to intact Dna2 [2] | Substance | binding signal (% reduction of bound Rpa by Dna2 D278A) [1]
1 |  | 3'-(dT)26 overhang DNA, biotinylated | 5
2 |  | 5'-(dT)26 overhang DNA, biotinylated | 30
3 | 2 fold | α1-deleted mouse Dna2 (from UniProt Q6ZQJ5 1-1056) (enzyme) | 
